The target in this experiment is phosphorylated receiver domain of LytR (LytR^N-P) (Staphylococcus aureus strain Mu50) (UniProt P60609). The experiment can be described thus: native gel or EMSA; LytR^N and LytR^N-P (phosphorylated by acetyl phosphate) at 10, 20 and 40 µM on native-PAGE (10% in the methods, 15% in the legend), buffer kept at 4°C, Coomassie stain.

The stoichiometry N is the number of molecules, sites or subunits per partner or assembly. Take “phosphorylated receiver domain of LytR (LytR^N-P) (from UniProt P60609 1-134) (domain or fragment)”: the stoichiometry N turned out to be 2.

The record behind these values is paper PMC4830213, “Signaling mechanism by the Staphylococcus aureus two-component system LytSR: role of acetyl phosphate in bypassing the cell membrane electrical potential sensor LytS” (F1000Research, 2016).
